Results on 4 molecules are retold here after patent US12123009B2, “Methods and compositions for PPO herbicide tolerance in plants” (Monsanto Technology LLC, priority 2015, dated 2024).

One experiment deals with soybean plantlets. In words: High-throughput soybean screening for herbicide tolerance (plantlets). It counts as in vivo, soybean (A3555). More on the design: key: 0 for poor tolerance, high damage, low green coloration; 1 for some tolerance, average damage, moderate green coloration; 2 for good tolerance, low damage, high green coloration. The note with it: S-3100 spray five weeks post-transformation, scored day four. From the text:
A high-throughput plant transformation and screening method was used to evaluate large numbers of constructs in transgenic plants for herbicide tolerance in early transformation plantlet tissue. This allowed for faster and higher volume screening of construct configurations and PPO enzymes.
This permitted the side-by-side comparison of seven different HemG PPO enzymes with thirty-seven different targeting peptides using the same promoter and 3′UTR elements for gene expression. These plant transformation constructs were used to transform soybean excised embryos (germplasm A3555) using A. tumefaciens and standard methods known in the art. Four hundred explants were inoculated for each construct resulting in twelve containers per construct. A sterile PPO herbicide solution was used for herbicide tolerance testing. The herbicide solution consisted of 0.3 g of S-3100 in crop oil concentrate (5.0 mL) and 495 mL of deionized water. This was filtered through a 0.45 micron Nalgene® Rapid-Flow™ Tissue Culture Filter Unit and Surfactant-Free Cellulose Acetate membrane filter unit (VWR, Radnor, PA, USA). The resulting sterile solution was shaken before application.
At five weeks post-transformation, four of the twelve plant containers per construct were sprayed with two passes of the sterile PPO herbicide solution. The treated plantlets were then enclosed in the container and received at least 15 hours of light exposure post spray each day for four days. At the end of day four post application of S-3100, the treated plantlets were photographed and scored on a visual scale of green coloration (green coloration was representative of healthy photosynthetic plant tissue as compared to photo-bleached tissue) versus damage. The scoring values were 0 for poor tolerance, high damage, low green coloration; 1 for some tolerance, average damage, moderate green coloration; and 2 for good tolerance, low damage, high green coloration. The scoring for each construct is presented in Table 9, where n.d. indicates the analysis was not conducted.

The next experiment has as its system R0 soybean plants. As to the kind of experiment: R0 transgenic soybean herbicide tolerance at eleven weeks. The format is in vivo. The note with it: R0 plants sprayed with S-3100 at eleven weeks, rated seven days after treatment. As for the experimental part: The plantlets in the non-sprayed containers corresponding to constructs having a score of 2 were transplanted at approximately 7 weeks post transformation and grown as R0 plants using standard methods known in the art. Plantlets corresponding to non-tolerant scores of 0 and 1 were also grown to serve as negative controls. The R0 plants were grown in a greenhouse under long-day nursery conditions (18 hr light at 80° F. then 6 hr dark at 74° F.) for approximately four weeks. At eleven weeks, the R0 plants were sprayed with two passes of the same herbicide solution (0.3 g of 5-3100) described above. Herbicide injury ratings were collected seven days after treatment.
The results of the herbicide tolerance application at eleven weeks to the R0 plants confirmed the low percent injury rating scores observed in the high-throughput screen at five weeks. Any injury rating of 30% or above was equivalent to non-transgenic soybean injury ratings. A few of the constructs stood out as providing very good tolerance to the herbicide application. […] Data are provided in Table 10, where n.d. indicates the analysis was not conducted.

A further experiment has as its system transgenic maize plants. As to the kind of experiment: R0 transgenic maize 40 g/ha S-3100 spray test. It counts as in vivo. The note with it: for Average Injury / Highly Tolerant (number of plants with less than 10% injury): 40 grams/ha S-3100 at V5, 7 days after treatment, R0 plants; for injury rates when expressed in transgenic plants (crop tolerance to a PPO herbicide): R0 transgenic maize data. From the text: H_N60 (SEQ ID NO:3). […] These five constructs had the same promoter plus leader plus intron combination, with two different targeting peptide (TP) sequences, and the same 3′UTR sequence. Leaf samples were taken from the R0 plants and analyzed by PCR to determine the transgene copy number. Single copy plants for up to 12 unique events per construct were transplanted to pots, selfed and outcrossed to generate R1 and F1 seed, respectively, for future testing. Multi-copy plants and extra single copy plants were sprayed with 40 grams/ha 5-3100 at approximately the V5 growth stage and injury ratings were taken 7 days after treatment. The average percent (%) injury for all plants expressing each PPO enzyme and the number of plants that were deemed highly tolerant (less than 10% injury) was noted, where each plant is a unique single or multi-copy transformant.

B1: H_N100: microbial HemG protoporphyrinogen oxidase, SEQ ID NO:9 (SEQ ID NO:17 lacking start methionine; variant 20) (protein, listed as Enterobacter cloacae)
chain: MKTLILFSTRDGQTREIAAFLASELKEQGIYADVINLNRTEEIAWQEYDRVVIGASIRYGHFHPAVDRFVKKHTETLNSLPGAFFSVNLVARKAEKRTPQTNSYTRKFLLNSPWKPAACAVFAGALRYPRYRWYDRFMIRLIMKMTGGETDTRKEVVYTDWSQVASFAREIVQLTRSSRL
For B1, the coloration score was 0 with soybean plantlets (TP9); 1 in the experiment with soybean plantlets (TP10); 0 in the experiment on soybean plantlets (TP11); 2 in the experiment with soybean plantlets (TP12); 0 with soybean plantlets (TP13); 1 with soybean plantlets (TP14). Besides, the coloration score was found to be 2 in the experiment on soybean plantlets (TP15); 1 in the experiment on soybean plantlets (TP16); 1 in the experiment with soybean plantlets (TP17); 1 in the experiment on soybean plantlets (TP18); 1 with soybean plantlets (TP19); 2 in the experiment with soybean plantlets (TP20). For the same molecule, the coloration score with soybean plantlets (TP21) amounted to 0; with soybean plantlets (TP22) it was 2; with soybean plantlets (TP23), 2; with soybean plantlets (TP24) it was 0; in the experiment with soybean plantlets (TP25), 1; with soybean plantlets (TP27), 1. For the same molecule, the coloration score is reported as 1 in the experiment with soybean plantlets (TP28); 1 in the experiment on soybean plantlets (TP29); 1 in the experiment with soybean plantlets (TP30); 1 in the experiment with soybean plantlets (TP31); 2 with soybean plantlets (TP32); 1 with soybean plantlets (TP33). The coloration score in the experiment with soybean plantlets (TP34) came to 0; in the experiment on soybean plantlets (TP35), 1; with soybean plantlets (TP36), 1. Moreover, the percent injury score is 35% in the experiment on R0 soybean plants (TP10); 50% with R0 soybean plants (TP12); 30% in the experiment on R0 soybean plants (TP15); 35% in the experiment on R0 soybean plants (TP20); 30% in the experiment with R0 soybean plants (TP22); 35% with R0 soybean plants (TP23). For the same molecule, the percent injury score is given as 35% in the experiment on R0 soybean plants (TP28), 40% in the experiment on R0 soybean plants (TP29), 40% in the experiment on R0 soybean plants (TP32) and 35% with R0 soybean plants (TP35).

B2: H_N60: microbial HemG protoporphyrinogen oxidase, SEQ ID NO:3 (protein, listed as Pantoea stewardii)
chain: MKALILYSTRDGQTRKIASSIADVIRQQQQCDVLNIKDASLPDWAQYDRVLIGASIRYGHFQPVVDKFVKQHLHELQQRTSGFFSVNLTARKPEKRSPETNAYTQKFLAHSPWQPDCCAVFAGALYYPRYRWFDRVMIQLIMRMTGGETDSTKEVEYTDWQQVSTFANDFAQLPGKS
In the case of B2, in the experiment with transgenic maize plants, the “Average Injury” value is listed as 55.8%, the “Highly Tolerant (number of plants with less than 10% injury)” value is given as 19 and the “injury rates when expressed in transgenic plants (crop tolerance to a PPO herbicide)” value (“injury rates when expressed” below) is listed as “reduced injury rates”.

B3: H_N40: microbial HemG protoporphyrinogen oxidase, SEQ ID NO:6 (SEQ ID NO:15 lacking start methionine) (protein, listed as Pectobacterium carotovorum)
chain: MKALIVFSSRDGQTRAIASYIANTLKGTLECDVVNVLNANDIDLSQYDRVAIGASIRYGRFHPAVNQFIRKHLTSLQQLPSAFFSVNLTARKPEKRTIQTNAYTRKFLLNSPWQPDLCCVFAGALRYPRYRWFDRVMIQLIMRITGGETDSTKEIEYTDWQQVARFAQDFAQLAAKNPA
In the case of B3, the “Average Injury” value in the experiment with transgenic maize plants was determined as 47.0%. The “Highly Tolerant (number of plants with less than 10% injury)” value with transgenic maize plants came out at 53. Besides, the “injury rates when expressed” value with transgenic maize plants is recorded as “reduced injury rates”. Also, the coloration score is recorded as 0 in the experiment with soybean plantlets (TP9); 1 in the experiment with soybean plantlets (TP11); 1 with soybean plantlets (TP12); 1 with soybean plantlets (TP13); 2 in the experiment with soybean plantlets (TP14); 2 in the experiment on soybean plantlets (TP15). For the same molecule, the coloration score with soybean plantlets (TP17) stood at 1; with soybean plantlets (TP18), 1; in the experiment with soybean plantlets (TP19), 1; in the experiment on soybean plantlets (TP21), 2; with soybean plantlets (TP23) it was 1; in the experiment on soybean plantlets (TP24) it was 0. For the same molecule, the coloration score is listed as 2 in the experiment with soybean plantlets (TP25); 1 in the experiment with soybean plantlets (TP26); 1 with soybean plantlets (TP27); 1 in the experiment on soybean plantlets (TP28); 1 in the experiment on soybean plantlets (TP29); 1 in the experiment on soybean plantlets (TP30). The figures for the coloration score with soybean plantlets (TP31), in the experiment with soybean plantlets (TP32) and in the experiment with soybean plantlets (TP33) were 1, 1 and 0, respectively. The percent injury score with R0 soybean plants (TP1) was determined as 5%; in the experiment on R0 soybean plants (TP13), 15%; with R0 soybean plants (TP14), 35%; in the experiment with R0 soybean plants (TP15) it was 30%; in the experiment on R0 soybean plants (TP21) it was 35%; in the experiment on R0 soybean plants (TP25) it was 15%.

B4: H_N110: microbial HemG protoporphyrinogen oxidase, SEQ ID NO:10 (protein, listed as Enterobacter mori)
chain: MKILILFSTRDGQTREIAASLASELKEQAFDVDVVNLHRAENIAWEEYDGVVIGASIRYGHFHSTLNSFVKKHQQALKKLPGAFYSVNLVARKPEKRTPQTNSYTRKFLLDSPWQPDLSAVFAGALRYPRYNWYDRIMIRLIMKITGGETDTRKEVVYTDWQQVTHFAHEIVQLVRK
Consider B4, for which, in the experiment with transgenic maize plants, the “Average Injury” value turned out to be 43.0%, the “Highly Tolerant (number of plants with less than 10% injury)” value is listed as “did not produce any highly tolerant plants” and the “injury rates when expressed” value is given as “reduced injury rates”.
